# In patent publication US20260049148:
# Tested on: internally quenched peptide probe (MCA)-Gly-Ser-Ala-Ile-Ala-Leu-Tyr-Gly-Gly-Ser-Lys (DNP)-D-Arg with CM AIALY (SEQ ID NO: 5)
# Sequence of human recombinant MMP9 (R&D Systems, catalog No: 911-MP) (chain, as listed by the source): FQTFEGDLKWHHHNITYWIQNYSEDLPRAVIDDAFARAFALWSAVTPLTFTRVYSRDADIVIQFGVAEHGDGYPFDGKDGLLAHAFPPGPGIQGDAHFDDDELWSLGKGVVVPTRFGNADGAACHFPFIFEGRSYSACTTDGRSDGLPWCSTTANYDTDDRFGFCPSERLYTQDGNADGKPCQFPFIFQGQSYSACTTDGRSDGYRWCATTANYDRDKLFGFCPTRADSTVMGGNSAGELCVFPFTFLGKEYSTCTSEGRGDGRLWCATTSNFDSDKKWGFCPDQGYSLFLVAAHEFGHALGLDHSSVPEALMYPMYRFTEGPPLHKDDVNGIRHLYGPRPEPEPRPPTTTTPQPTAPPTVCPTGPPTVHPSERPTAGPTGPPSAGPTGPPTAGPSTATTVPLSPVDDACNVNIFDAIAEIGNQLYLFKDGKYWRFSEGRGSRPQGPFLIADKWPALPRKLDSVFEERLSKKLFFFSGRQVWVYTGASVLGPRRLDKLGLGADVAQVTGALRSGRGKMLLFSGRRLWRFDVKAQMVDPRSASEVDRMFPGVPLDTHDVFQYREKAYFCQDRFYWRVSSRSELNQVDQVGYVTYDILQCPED
substance,measurement,value
"human recombinant MMP9 (R&D Systems, catalog No: 911-MP)",Probe Cleavage (kcat/KM),41000 M⁻¹ s⁻¹
same,Probe Cleavage (pM/s),87.7 pM/s
